In US20060188440A1 (FOX CHASE CANCER CENTER, published 2006):

B1: scFv-Fc of clone #7 (Fc fusion)
scFv: QVQLVQSGTEVKRPGASVKISCRATGYTFSDYGISWMRQAPGQGLEWMGWISAYNGNTNYAQKLQGRVTMTTDTSTSTAYMELRSLRYDDTAVYYCARDGRRGSGIYWGVYYYNGMDVWGQGTTVTVSSGGGGSGGGGSGGGGSQPVLTQPPSASGTPGQRVTISCSGSRSNIGRNTVNWYQQVPGMAPKLLIYSNNQRPSGVPDRFSGSKSGTSASLAISGLQSEDEADYYCAAWDDSLNGVVFGGGTKLTVL
notes: Bivalent fusion secreted from mammalian cells; The F105 VH / pelB leader is not part of the secreted protein; Copies '2' follows from 'bivalent'; also called sFv-IgG fusion protein; not shown: Human IgG1 hinge-CH2-CH3 of the hinge stuffer vector, and the junction to it
B2: M9 scFv antibody molecule (scFv)
scFv: MAQVQLVQSGAEVKKPGASVKVSCKASGYTFTSYDINWVRQATGQGLEWMGWMNPNSGNTGYAQKFQGRVTMTRNTSTNTAYMELTSLTSEDTAVYYCARGSPSPMNVWGQGTTVTVSSGGGGSGGGGSGGGGSQPVLTQPHSVSESPGKTVTISCTRSSGSIANDYVQWFQQRPGSAPTIVIYEDYRRPSGVPDRFSGSIDSSSNSASLTISGLKTEDEADYYCQSYDSSNPYVVFGGGTKLTVLGQPKAAPSAAA
B3: anti-MISIIR scFv of clone #7 (scFv)
scFv: MAQVQLVQSGTEVKRPGASVKISCRATGYTFSDYGISWMRQAPGQGLEWMGWISAYNGNTNYAQKLQGRVTMTTDTSTSTAYMELRSLRYDDTAVYYCARDGRRGSGIYWGVYYYNGMDVWGQGTTVTVSSGGGGSGGGGSGGGGSQPVLTQPPSASGTPGQRVTISCSGSRSNIGRNTVNWYQQVPGMAPKLLIYSNNQRPSGVPDRFSGSKSGTSASLAISGLQSEDEADYYCAAWDDSLNGVVFGGGTKLTVLGQPKAAP
notes: Expressed from pCYN (pUC119mychis) with myc and His tags
B4: anti-MISIIR scFv of clone #17 (scFv)
scFv: MAQVTLKESGPTLVKPTQTLTLTCTFSGFSLTTSGVGVGWIRQAPGKAPEWLALIDWDDDKYYSTSLKTRLTISKDTSKNQVVLTMTNMDPVDTATYYCARDSYYGSGSHFDFWGQGTLVTVSSGGGGSGGGGSGGGGSSYELTQPPSVSVSPGQTATITCSGHDLRNKYAHWYQQKPGQSPVLVVYQDAKRPSGIPERFSGSNSGNTATLTISGTQAMDEADYYCQTWDRSTVVFGGGTKLTVLGQPKAAPSAA
notes: Expressed from pCYN (pUC119mychis) in E. coli and purified by IMAC; It carries C-terminal myc and His tags
B5: scFv antibody molecule of clone #29 (scFv)
scFv: MAQVQLVQSGGGLVQPGGSLRLSCAASGFTVSSNYMSWVRQAPGKGLEWVSAISGSGGSTYYADSVKGRFTISRDNSKNTLYLQMNSLRAEDTAVYYCATRPSRGSSGWYGGDYWGQGTLVTVSSGGGGSGGGGSGGGGSSYELTQPPSTSGTPGQRVTISCSGSTSNIATNNVNWYQFLPGTAPKLLMYRNDQRPAGVPDRFSGSKSGTSASLAISGLQPEDEADYYCAAWDDSLGGEVFGTGTKVNVLGQPKAAPSAA
B6: GY4 scFv antibody molecule (scFv)
scFv: MAQITLKESGPTLVKPTQTLTLTCTVSGFSLSNARMGVSWIRQPPGKALEWLALIYRDNDKRYNPSLKSRLTITKDTSKNQVVLTMSNMDPVDTATYYCAHSLVVPAANPFDYWGQGTLVTVSSSASGAELGGGGSGGGGSGGGGSTSQAVLTQPSSLSASPGASASLTCTLRSGINVGTYRIYWYQQKPGSPPQYLLRYKSDSDKQKGSGVPSRFSGSKDASANAGILLISGLQSEDEADYYCMIWHTSAYVFGTGTKVTVLGSS

Tests used:
[1] = molecular target: T1, MISIIR-Fc ECD fusion protein (human, UniProt Q16671 18-149); assay: SPR (BIAcore 1000), chip coated with MISIIR (MISIIR-Fc ECD fusion protein), scFv-Fc flowed over; analyte concentration not given; time unit not given
T1 construct: extracellular domain; Two orientations were made (ECD 5' or 3' of Fc); The secretion signal from the vector is not part of the secreted protein; also called MISIIR-Fc fusion protein; MISIIR ECD; not shown: tobacco etch virus cleavage site between MISIIR and Fc; human IgG1 Fc domain; C-terminal c-myc tag and 6xHis tag from the pSecTag2/Hygro vector
Description: (§1) Surface plasmon resonance (SPR) technology was used to determine the binding of the anti-MISIIR molecules to MISIIR ECD. The SPR response reflects a change in the mass concentration as molecules bind or dissociate from an antigen immobilized on a sensor chip. These studies were performed on a BIAcore 1000 instrument. The MISIIR-Fc ECD fusion protein target antigen was coated on a CM5 chip at a concentration of 5,000 resonance units (RU). The anti-MISIIR antibody molecules were then flowed over the chip and the difference in the response units (RU) between the start point and the end was determined. A negative control protein (Fc) was coated on a chip at 4,800 RU and was used to rule out binding to the Fc portion of the MISIIR-Fc fusion protein. The association and dissociation rates, and the affinity of each molecule for MISIIR ECD were determined by passing serially diluted samples over an MISIIR-Fc ECD coated chip with a lower concentration of target antigen (600 RU) as per the BIAcore manufacturer's instructions. The evaluation of the data was done using BIAEvaluation 3.0 software.

[2] = molecular target: T2, MISIIR expressed on IGROV-1 cells (UniProt Q16671 18-573, limits assumed); assay: flow cytometry (FACS) on IGROV-1 cells, detection with fluorescein-conjugated goat anti-human IgG; concentration not given
T2 construct: whole, on cells; also called MIS type II receptor
T2 sequence (looked up): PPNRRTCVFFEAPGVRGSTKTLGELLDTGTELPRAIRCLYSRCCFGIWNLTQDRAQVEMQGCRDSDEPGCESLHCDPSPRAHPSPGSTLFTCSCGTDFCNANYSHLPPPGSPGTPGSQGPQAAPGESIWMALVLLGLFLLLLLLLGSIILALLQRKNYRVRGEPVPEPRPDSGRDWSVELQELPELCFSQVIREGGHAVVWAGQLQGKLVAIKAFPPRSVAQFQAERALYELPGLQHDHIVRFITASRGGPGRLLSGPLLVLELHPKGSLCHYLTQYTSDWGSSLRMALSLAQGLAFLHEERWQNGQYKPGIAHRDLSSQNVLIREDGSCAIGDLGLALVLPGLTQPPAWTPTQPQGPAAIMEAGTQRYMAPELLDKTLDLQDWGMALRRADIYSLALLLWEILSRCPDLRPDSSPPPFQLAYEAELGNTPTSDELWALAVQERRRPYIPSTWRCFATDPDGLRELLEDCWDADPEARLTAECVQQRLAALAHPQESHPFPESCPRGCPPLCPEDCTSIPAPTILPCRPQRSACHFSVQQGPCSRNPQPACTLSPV
Description: The binding of the antibodies was also tested in a standard fluorescence-activated cell sorter (FACS) assay.

[3] = molecular target: T1, MISIIR-Fc ECD fusion protein; assay: assay not named in the sentence (ELISA / SPR of Example 1)
[4] = molecular target: T1, MISIIR-Fc ECD fusion protein; assay: SPR (BIAcore 1000), MISIIR-Fc ECD on CM5 chip (600 RU), serially diluted scFv
Description: as §1

| Binder | binding result [3] | Kd [4] | also measured |
| --- | --- | --- | --- |
| B1 |  |  | binding result [1]: binds; binding result [2]: binds |
| B2 | binds |  |  |
| B3 |  | 300 nM |  |
| B4 |  | 90 nM |  |
| B5 | binds |  |  |
| B6 | binds |  |  |
